One series concerns the target T1, TatCel7A (Trichoderma atroviride, UniProt G9NTY1).
T1 construct: gene TRIATDRAFT_88458
Put plainly: competitive (product) inhibition of pNP-Lac hydrolysis, pH […] °C. The class given is biochemical.

In the next series the target is T2, ThaCel7A (Trichoderma harzianum, UniProt Q9P8P3).
T2 construct: gene cbh1
T2 sequence (Q9P8P3 18-443): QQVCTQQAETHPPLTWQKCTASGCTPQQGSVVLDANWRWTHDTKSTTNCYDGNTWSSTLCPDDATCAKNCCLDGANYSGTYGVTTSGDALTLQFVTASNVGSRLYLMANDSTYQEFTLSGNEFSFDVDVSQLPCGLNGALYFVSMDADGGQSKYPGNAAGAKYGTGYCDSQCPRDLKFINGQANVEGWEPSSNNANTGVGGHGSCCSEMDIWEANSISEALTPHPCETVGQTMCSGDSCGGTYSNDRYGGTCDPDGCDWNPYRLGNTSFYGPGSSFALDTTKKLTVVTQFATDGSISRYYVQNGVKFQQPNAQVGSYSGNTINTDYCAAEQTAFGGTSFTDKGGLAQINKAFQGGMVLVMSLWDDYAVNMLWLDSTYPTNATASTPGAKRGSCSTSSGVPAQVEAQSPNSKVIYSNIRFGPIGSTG
Described as above. The class given is biochemical.

Another series has as its target T3, TreCel7A (Trichoderma reesei, UniProt P62694).
T3 construct: gene cbh1
T3 sequence (P62694 18-451): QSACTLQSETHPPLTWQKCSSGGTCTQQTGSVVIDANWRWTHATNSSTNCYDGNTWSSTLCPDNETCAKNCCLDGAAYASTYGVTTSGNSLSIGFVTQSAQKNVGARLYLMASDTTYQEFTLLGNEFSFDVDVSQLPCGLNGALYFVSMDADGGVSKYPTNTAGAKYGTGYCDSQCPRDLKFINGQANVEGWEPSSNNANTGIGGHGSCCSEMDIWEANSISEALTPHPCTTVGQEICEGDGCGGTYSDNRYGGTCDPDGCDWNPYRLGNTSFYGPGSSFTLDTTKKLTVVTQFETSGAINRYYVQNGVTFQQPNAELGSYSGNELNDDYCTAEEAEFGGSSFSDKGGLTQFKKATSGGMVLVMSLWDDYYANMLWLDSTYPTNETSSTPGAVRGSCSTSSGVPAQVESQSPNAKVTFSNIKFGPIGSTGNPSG
The series is described as above. The format is biochemical.

Substrate in series [1]: [H][C@@]1(O[C@H]2[C@H](O)[C@@H](O)[C@H](Oc3ccc([N+](=O)[O-])cc3)O[C@@H]2CO)O[C@H](CO)[C@H](O)[C@H](O)[C@H]1O
The experiment in a line: purified protein. The class given is biochemical, Trichoderma harzianum. Conditions: subsites (−[…]/−[…]/+[…]) where pNP-Lac should bind for hydrolysis; pH 4.5; 30.0 °C.

Substrate in series [2]: [H][C@@]1(O[C@H]2[C@H](O)[C@@H](O)[C@H](Oc3ccc([N+](=O)[O-])cc3)O[C@@H]2CO)O[C@H](CO)[C@H](O)[C@H](O)[C@H]1O
The experiment in a line: purified protein. The class given is biochemical, Trichoderma atroviride. Conditions: subsites (−[…]/−[…]/+[…]) where pNP-Lac should bind for hydrolysis; pH 4.5; 30.0 °C.

Substrate in series [3]: [H][C@@]1(O[C@H]2[C@H](O)[C@@H](O)[C@H](Oc3ccc([N+](=O)[O-])cc3)O[C@@H]2CO)O[C@H](CO)[C@H](O)[C@H](O)[C@H]1O
The experiment in a line: purified protein. Conditions: subsites (−[…]/−[…]/+[…]) where pNP-Lac should bind for hydrolysis; pH 4.5; 30.0 °C. The format is biochemical, Trichoderma reesei.

This is an account of results in paper PMC5766984, “Correlation of structure, function and protein dynamics in GH7 cellobiohydrolases from Trichoderma atroviride, T. reesei and T. harzianum” (Biotechnology for Biofuels, 2018).

Take `OC[C@H]1O[C@@H](O[C@H]2[C@H](O)[C@@H](O)C(O)O[C@@H]2CO)[C@H](O)[C@@H](O)[C@@H]1O` (stereo partly drawn) [cellobiose]: the Ki (as a rule, a measure of affinity in units of concentration, obtained from inhibition or displacement) on TatCel7A was found to be 72 µM; on ThaCel7A it was 49 µM; on TreCel7A it was 24 µM.

B1: ThaCel7A (Trichoderma harzianum) (protein)
chain: QQVCTQQAETHPPLTWQKCTASGCTPQQGSVVLDANWRWTHDTKSTTNCYDGNTWSSTLCPDDATCAKNCCLDGANYSGTYGVTTSGDALTLQFVTASNVGSRLYLMANDSTYQEFTLSGNEFSFDVDVSQLPCGLNGALYFVSMDADGGQSKYPGNAAGAKYGTGYCDSQCPRDLKFINGQANVEGWEPSSNNANTGVGGHGSCCSEMDIWEANSISEALTPHPCETVGQTMCSGDSCGGTYSNDRYGGTCDPDGCDWNPYRLGNTSFYGPGSSFALDTTKKLTVVTQFATDGSISRYYVQNGVKFQQPNAQVGSYSGNTINTDYCAAEQTAFGGTSFTDKGGLAQINKAFQGGMVLVMSLWDDYAVNMLWLDSTYPTNATASTPGAKRGSCSTSSGVPAQVEAQSPNSKVIYSNIRFGPIGSTG
For the molecule B1, in the series “purified protein [1]”, the Michaelis-Menten constant (Km) (commonly the concentration of substrate that gives half-maximal velocity) stood at 900 µM; the kcat (usually the maximal rate divided by the concentration of active sites) came out at 0.067 s⁻¹; the kcat/Km (as a rule, the second-order rate constant that governs catalysis at low substrate concentration) amounted to 75 M⁻¹ s⁻¹.

B2: TatCel7A (Trichoderma atroviride IMI 206040) (protein)
chain: QQVCTTQAETHPALSWSKCTSGGSCTTQAGKVVLDANWRWTHAYPSGNNCYNGNTWDATLCPDDATCAKNCCLEGADYSGTYGVTTSGNQLTIDFVTQSANKNVGARLYLMASDTAYEEFTLLNNEFSFDVDVSALPCGLNGALYFVSMDADGGASKYPTNLAGAKYGTGYCDSQCPRDLKFISGQANVEGWQPSSNNANTGIGGHGSCCSEMDIWEANSISQALTPHPCETVGQVTCSGDDCGGTYSNNRYGGTCDPDGCDWNPYRLGNHTFYGPGSGFTVDTTKKITVVTQFSSTGINRYYVQNGVKFVQPNASGLSGYTGNTINSAYCSAEQTAFGGTSFTDKGGLTQMNKALSGGMVLVLSLWDDYAANMLWLDSTYPTNDTASTPGAARGTCSTSSGVPATVEQQSPNSKVVFSNIKFGPIGSTG
With B2, in “purified protein [2]”, the Km is 1000 µM, the turnover number (kcat) amounted to 0.019 s⁻¹ and the catalytic efficiency (kcat/Km) stood at 19 M⁻¹ s⁻¹.

B3: TreCel7A (Trichoderma reesei) (protein)
chain: QSACTLQSETHPPLTWQKCSSGGTCTQQTGSVVIDANWRWTHATNSSTNCYDGNTWSSTLCPDNETCAKNCCLDGAAYASTYGVTTSGNSLSIGFVTQSAQKNVGARLYLMASDTTYQEFTLLGNEFSFDVDVSQLPCGLNGALYFVSMDADGGVSKYPTNTAGAKYGTGYCDSQCPRDLKFINGQANVEGWEPSSNNANTGIGGHGSCCSEMDIWEANSISEALTPHPCTTVGQEICEGDGCGGTYSDNRYGGTCDPDGCDWNPYRLGNTSFYGPGSSFTLDTTKKLTVVTQFETSGAINRYYVQNGVTFQQPNAELGSYSGNELNDDYCTAEEAEFGGSSFSDKGGLTQFKKATSGGMVLVMSLWDDYYANMLWLDSTYPTNETSSTPGAVRGSCSTSSGVPAQVESQSPNAKVTFSNIKFGPIGSTGNPSG
On to B3, for which, in the series “purified protein [3]”, the Km worked out at 720 µM, the kcat came to 0.057 s⁻¹ and the catalytic efficiency (kcat/Km) stood at 79 M⁻¹ s⁻¹.
